Experimental data as given in patent US20110263454A1, “Methods of Identifying Functional Characteristics of Promoters, Transcription Modifying Proteins and Transcription Modulating Agents” (Salk Institute for Biological Studies, priority 2008, published 2011).

B1: FXR: Farnesoid X Receptor (NR1H4), cDNA driver (protein, UniProt Q96RI1 1-486, looked up)
Bile acid receptor: MVMQFQGLENPIQISPHCSCTPSGFFMEMMSMKPAKGVLTEQVAGPLGQNLEVEPYSQYSNVQFPQVQPQISSSSYYSNLGFYPQQPEEWYSPGIYELRRMPAETLYQGETEVAEMPVTKKPRMGASAGRIKGDELCVVCGDRASGYHYNALTCEGCKGFFRRSITKNAVYKCKNGGNCVMDMYMRRKCQECRLRKCKEMGMLAECMYTGLLTEIQCKSKRLRKNVKQHADQTVNEDSEGRDLRQVTSTTKSCREKTELTPDQQTLLHFIMDSYNKQRMPQEITNKILKEEFSAEENFLILTEMATNHVQVLVEFTKKLPGFQTLDHEDQIALLKGSAVEAMFLRSAEIFNKKLPSGHSDLLEERIRNSGISDEYITPMFSFYKSIGELKMTQEEYALLTAIVILSPDRQYIKDREAVEKLQEPLLDVLQKLCKIHQPENPQHFACLLGRLTELRTFNHHHAEMLMSWRVNDHKFTPLLCEIWDVQ
B2: PPARd: Peroxisome proliferator activated receptor δ (NR1C2), cDNA driver (protein, UniProt Q03181 1-441, looked up)
Peroxisome …: MEQPQEEAPEVREEEEKEEVAEAEGAPELNGGPQHALPSSSYTDLSRSSSPPSLLDQLQMGCDGASCGSLNMECRVCGDKASGFHYGVHACEGCKGFFRRTIRMKLEYEKCERSCKIQKKNRNKCQYCRFQKCLALGMSHNAIRFGRMPEAEKRKLVAGLTANEGSQYNPQVADLKAFSKHIYNAYLKNFNMTKKKARSILTGKASHTAPFVIHDIETLWQAEKGLVWKQLVNGLPPYKEISVHVFYRCQCTTVETVRELTEFAKSIPSFSSLFLNDQVTLLKYGVHEAIFAMLASIVNKDGLLVANGSGFVTREFLRSLRKPFSDIIEPKFEFAVKFNALELDDSDLALFIAAIILCGDRPGLMNVPRVEAIQDTILRALEFHLQANHPDAQYLFPKLLQKMADLRQLVTEHAQMMQRIKKTETETSLHPLLQEIYKDMY
B3: RARb: Retinoic acid receptor β (NR1B2), nuclear hormone receptor cDNA driver (protein, UniProt P10826 1-455, looked up)
Retinoic acid receptor beta: MTTSGHACPVPAVNGHMTHYPATPYPLLFPPVIGGLSLPPLHGLHGHPPPSGCSTPSPATIETQSTSSEELVPSPPSPLPPPRVYKPCFVCQDKSSGYHYGVSACEGCKGFFRRSIQKNMIYTCHRDKNCVINKVTRNRCQYCRLQKCFEVGMSKESVRNDRNKKKKETSKQECTESYEMTAELDDLTEKIRKAHQETFPSLCQLGKYTTNSSADHRVRLDLGLWDKFSELATKCIIKIVEFAKRLPGFTGLTIADQITLLKAACLDILILRICTRYTPEQDTMTFSDGLTLNRTQMHNAGFGPLTDLVFTFANQLLPLEMDDTETGLLSAICLICGDRQDLEEPTKVDKLQEPLLEALKIYIRKRRPSKPHMFPKILMKITDLRSISAKGAERVITLKMEIPGSMPPLIQEMLENSEGHEPLTPSSSGNTAEHSPSISPSSVENSGVSQSPLVQ
B4: PXR: Pregnane X Receptor (NR1I2), cDNA driver (protein, UniProt O75469 1-434, looked up)
Nuclear receptor subfamily 1 …: MEVRPKESWNHADFVHCEDTESVPGKPSVNADEEVGGPQICRVCGDKATGYHFNVMTCEGCKGFFRRAMKRNARLRCPFRKGACEITRKTRRQCQACRLRKCLESGMKKEMIMSDEAVEERRALIKRKKSERTGTQPLGVQGLTEEQRMMIRELMDAQMKTFDTTFSHFKNFRLPGVLSSGCELPESLQAPSREEAAKWSQVRKDLCSLKVSLQLRGEDGSVWNYKPPADSGGKEIFSLLPHMADMSTYMFKGIISFAKVISYFRDLPIEDQISLLKGAAFELCQLRFNTVFNAETGTWECGRLSYCLEDTAGGFQQLLLEPMLKFHYMLKKLQLHEEEYVLMQAISLFSPDRPGVLQHRVVDQLQEQFAITLKSYIECNRPQPAHRFLFLKIMAMLTELRSINAQHTQRLLRIQDIHPFATPLMQELFGITGS
B5: RARg: Retinoic acid receptor γ (NR1B3), nuclear hormone receptor cDNA driver (protein, UniProt P13631 1-454, looked up)
Retinoic acid receptor gamma: MATNKERLFAAGALGPGSGYPGAGFPFAFPGALRGSPPFEMLSPSFRGLGQPDLPKEMASLSVETQSTSSEEMVPSSPSPPPPPRVYKPCFVCNDKSSGYHYGVSSCEGCKGFFRRSIQKNMVYTCHRDKNCIINKVTRNRCQYCRLQKCFEVGMSKEAVRNDRNKKKKEVKEEGSPDSYELSPQLEELITKVSKAHQETFPSLCQLGKYTTNSSADHRVQLDLGLWDKFSELATKCIIKIVEFAKRLPGFTGLSIADQITLLKAACLDILMLRICTRYTPEQDTMTFSDGLTLNRTQMHNAGFGPLTDLVFAFAGQLLPLEMDDTETGLLSAICLICGDRMDLEEPEKVDKLQEPLLEALRLYARRRRPSQPYMFPRMLMKITDLRGISTKGAERAITLKMEIPGPMPPLIREMLENPEMFEDDSSQPGPHPNASSEDEVPGGQGKGGLKSPA

Tests used:
[1] = system: hCAR promoter; experiment: NHR-promoter luciferase screen, hCAR promoter; format: cell-based, human; details: for luciferase activity normalized to lacZ activity and to a control, hCAR: hCAR promoter-luciferase, CV-1 cells, NHR +/- ligand, control = 1.00; for Luc. act., normalized to lacZ / Normalized Luc. act., normalized to control: hCAR promoter, HR/ligand component
Procedure, shortened: (§1)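 CV-1 cells were co-transfected with 50 ng NHR (homodimer or NHR/RXR heterodimer), 100 ng promoter-luciferase construct and 50 ng LacZ. Luciferase was normalized to LacZ and to a no-NHR/no-ligand control.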

[2] = system: mPer1 promoter; experiment: NHR-promoter luciferase screen, mPer1 promoter; format: cell-based, mouse; details: for Luc. act., normalized to lacZ / Normalized Luc. act., normalized to control: Per1 promoter reporter, co-transfected HR, with or without its ligand; for Normalized Luc. act., normalized to control: relative to control; for luciferase activity normalized to lacZ activity and to a control, mPer1: mPer1 promoter-luciferase, CV-1 cells, NHR +/- ligand, control = 1.00
Procedure, shortened: as §1

[3] = system: hCYP3A4 promoter; experiment: NHR-promoter luciferase screen, hCYP3A4 promoter; format: cell-based, human; details: for Luc. act., normalized to lacZ / Normalized Luc. act., normalized to control: CYP3A4 promoter, HR/ligand component; for hCYP3A4 promoter reporter activity: transcription factor +/- ligand, control = 1.00
Procedure, shortened: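 Luciferase reporter read-out after co-expression in CV-1 cells of V5H6-tagged receptor (alone or with RXR), the promoter construct and LacZ. Values are luciferase/LacZ relative to a control lacking NHR or ligand; orphan receptors tested ligand-free.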

[4] = system: hPPARg1 promoter; experiment: NHR-promoter luciferase screen, hPPARg1 promoter; format: cell-based, human; details: for Luc. act., normalized to lacZ / Normalized Luc. act., normalized to control: PPARG1 promoter, hormone receptor with or without its ligand; for Normalized Luc. act., normalized to control: relative to control; for Results of assays of transcription factor (+/- ligand) with hPPARg1: Table 6d, luciferase activity relative to control (control = 1.00)
Procedure, shortened: as §1

[5] = system: mUCP1 promoter; experiment: NHR-promoter luciferase screen, mUCP1 promoter; format: cell-based, mouse; details: for Luc. act., normalized to lacZ / Normalized Luc. act., normalized to control: mUCP1 promoter reporter, co-transfected HR, with or without its ligand; for Normalized Luc. act., normalized to control: relative to control; for luciferase activity normalized to lacZ activity and to a control, mUCP!: mUCP! promoter-luciferase, CV-1 cells, NHR +/- ligand, control = 1.00
Procedure, shortened: as §1

[6] = system: mAgrp promoter; experiment: NHR-promoter luciferase screen, mAgrp promoter; format: cell-based, mouse; details: for Results of assays of transcription factor (+/- ligand) with mAgrp: Table 6d, luciferase activity relative to control (control = 1.00); for Luc. act., normalized to lacZ / Normalized Luc. act., normalized to control: mAgrp promoter, HR component with or without ligand; for Normalized Luc. act., normalized to control: relative to control
Procedure, shortened: as §1

Row | Molecule | luciferase activity normalized to lacZ activity and to a control, hCAR [1] | Luc. act., normalized to lacZ [1] | Normalized Luc. act., normalized to control [1] | Luc. act., normalized to lacZ [2] | Normalized Luc. act., normalized to control [2] | luciferase activity normalized to lacZ activity and to a control, mPer1 [2] | Luc. act., normalized to lacZ [3] | Normalized Luc. act., normalized to control [3] | hCYP3A4 promoter reporter activity [3] | Luc. act., normalized to lacZ [4] | Normalized Luc. act., normalized to control [4] | Results of assays of transcription factor (+/- ligand) with hPPARg1 [4] | Luc. act., normalized to lacZ [5] | Normalized Luc. act., normalized to control [5] | luciferase activity normalized to lacZ activity and to a control, mUCP! [5] | Results of assays of transcription factor (+/- ligand) with mAgrp [6] | Luc. act., normalized to lacZ [6] | Normalized Luc. act., normalized to control [6]
1 | B1 | 0.78 | 24.6 | 0.8 | 98.0 | 0.7 | 0.68 | 4.2 | 0.9 | 0.93 | 54.8 | 0.8 | 0.80 | 4.2 | 1.0 | 0.95 | 1.14 | 45.1 | 1.1
2 | B2 | 1.22 | 38.6 | 1.2 | 187.6 | 1.3 | 1.30 | 5.0 | 1.1 | 1.12 | 46.0 | 0.7 | 0.67 | 3.5 | 0.8 | 0.79 | 1.32 | 52.4 | 1.3
3 | B3 | 1.31 | 41.4 | 1.3 | 89.3 | 0.6 | 0.62 | 4.6 | 1.0 | 1.03 | 100.6 | 1.5 | 1.46 | 4.4 | 1.0 | 1.00 | 2.27 | 90.2 | 2.3
4 | B4 | 1.16 | 36.5 | 1.2 | 186.7 | 1.3 | 1.30 | 8.8 | 2.0 | 1.98 | 63.3 | 0.9 | 0.92 | 2.1 | 0.5 | 0.47 | 1.51 | 60.0 | 1.5
5 | B5 | 0.99 | 31.4 | 1.0 | 120.3 | 0.8 | 0.84 | 4.0 | 0.9 | 0.91 | 80.1 | 1.2 | 1.16 | 5.0 | 1.1 | 1.13 | 2.06 | 81.9 | 2.1
